Paper doi:10.1101/2024.07.05.601840v1

Assays:
Experiment in all cases: purified protein
[1] = substrate: CCCCCCCC(=O)SCCNC(=O)CCNC(=O)[C@H](O)C(C)(C)COP(=O)(O)OP(=O)(O)OC[C@H]1O[C@@H](n2cnc3c(N)ncnc32)[C@H](O)[C@@H]1OP(=O)(O)O; conditions: 1 mM FcPF6, pH 6.5 HEPES-KOH, 20 mM KCl, 65°C
[2] = substrate: C/C=C/C(=O)SCCNC(=O)CCNC(=O)[C@H](O)C(C)(C)COP(=O)(O)OP(=O)(O)OC[C@H]1O[C@@H](n2cnc3c(N)ncnc32)[C@H](O)[C@@H]1OP(=O)(O)O
[3] = substrate: CC(=O)CC(=O)SCCNC(=O)CCNC(=O)[C@H](O)C(C)(C)COP(=O)(O)OP(=O)(O)OC[C@H]1O[C@@H](n2cnc3c(N)ncnc32)[C@H](O)[C@@H]1OP(=O)(O)O; conditions: 0.2 mM NADH, pH 7 TRIS-HCl, 35°C
[4] = substrate: C[C@H](O)CC(=O)SCCNC(=O)CCNC(=O)[C@H](O)C(C)(C)COP(=O)(O)OP(=O)(O)OC[C@H]1O[C@@H](n2cnc3c(N)ncnc32)[C@H](O)[C@@H]1OP(=O)(O)O; conditions: oxidative direction with NAD+
[5] = substrate: NC(=O)C1=CN([C@@H]2O[C@H](COP(=O)(O)OP(=O)(O)OC[C@H]3O[C@@H](n4cnc5c(N)ncnc54)[C@H](O)[C@@H]3O)[C@@H](O)[C@H]2O)C=CC1
[6] = substrate: NC(=O)c1ccc[n+]([C@@H]2O[C@H](COP(=O)(O)OP(=O)(O)OC[C@H]3O[C@@H](n4cnc5c(N)ncnc54)[C@H](O)[C@@H]3O)[C@@H](O)[C@H]2O)c1; conditions: 0.4 mM crotonyl-CoA, pH 7 TRIS-HCl, 75°C, varied: cofactor
[7] = substrate: C[C@@H](O)CC(=O)SCCNC(=O)CCNC(=O)[C@H](O)C(C)(C)COP(=O)(O)OP(=O)(O)OC[C@H]1O[C@@H](n2cnc3c(N)ncnc32)[C@H](O)[C@@H]1OP(=O)(O)O; conditions: dehydration, pH 6.5 MES-KOH, 20 mM KCl, 65°C
[8] = substrate: CC(=O)CC(=O)SCCNC(=O)CCNC(=O)[C@H](O)C(C)(C)COP(=O)(O)OP(=O)(O)OC[C@H]1O[C@@H](n2cnc3c(N)ncnc32)[C@H](O)[C@@H]1OP(=O)(O)O; type: biochemical, Sulfolobus acidocaldarius; conditions: thiolytic cleavage, 0.2 mM CoA, 20 mM MgCl2, pH 8, 23°C
[9] = substrate: CC(C)(COP(=O)(O)OP(=O)(O)OC[C@H]1O[C@@H](n2cnc3c(N)ncnc32)[C@H](O)[C@@H]1OP(=O)(O)O)[C@@H](O)C(=O)NCCC(=O)NCCS; type: biochemical, Sulfolobus acidocaldarius; conditions: thiolytic cleavage, 0.1 mM AcAcCoA, 20 mM MgCl2, pH 8, 23°C
[10] = 0.2 mM NAD+, pH 7 TRIS-HCl, 75°C
[11] = 0.6 mM AcAcCoA, pH 7 TRIS-HCl, 35°C, varied: cofactor
[12] = hydration, pH 6.5 MES-KOH, 20 mM KCl, 65°C
[13] = 0.3 mM NADPH, pH 7.5 HEPES-NaOH, 10 mM KCl, 70°C
[14] = 0.2 mM INT, pH 7.5 HEPES-NaOH, 100 mM NaCl

B1: ACAD (Saci_1123) (Sulfolobus acidocaldarius DSM 639) (protein)
chain: MVLPFKTMEAFNVEISEKHELFRRAVREFMERDVAPYVEKGEKEGQIPKEVLEKAKELGLYGVSVPEEYGGQGGDSLMTVIAQEEMARVWAALSTRVAVGGLFMTPILLFGSEEQRKKYVTPVAKGDKVAAFANTEPQAGSDVAGMQSTAKKVNGKYILNARKIFITNGGIADYYVVTARTSPPEPNARWKGISMFVVEREWKGVKVLNRIETMGLKASNTAELAFEDVEVPAENLVGEEGMGFKYAMSTFDASRVGVAGQALGVAQAALEKMTNYSVQRSAFGSPLLGFQMVQEKIAETLTEVNAARLVTYWAATLYNKGMTNEAIIASSMAKYFATEVAERAAIRAITVHGGYGVATSTGVERLLRDVEIMKIYEGANDIQKLVILKETARRLFGIKM
[1]
  Km: 15.1 ± 4 µM
  kcat: 21.234 s⁻¹

B2: HCDH/ECH (Saci_1109) (Sulfolobus acidocaldarius DSM 639) (protein)
chain: MKVEDIKKILVIGAGTMGHGIAELAAIAGYQVYLSDVSQDILNSAMDKVKWSLTKLKERGTIKEDVETVLQRIRPVVGLDKTVSDADFSIEAITEKIDVKRQTFAKLDELLPPHAILATNTSSLPVSKIAEATKRPDKVVGMHYFNPPALMPLVEVMKGDKTSDETAKVTYELAKKLGKQPIMINKDIPGYVVNRILGGINIASCIVVEKKLADIKEVDAVARYKLGFPMGVFELLDYTGIDVAYYISKSREELGVKDDIPICSLIVEKFKNNELGVKSGKGFYTYPGPGKYVKPELPKELAEKLNPALIIAPAVNEAARLVRENIASKEDVDLGTVLGLGFQKGILKLADEVGIDNIVNSLSELKKLTGISSFDPDPLLTEMVSQGKVGMKSGSGFFEYGKIQQKTLKTLILRVEPPLAWIVLNRPERLNALSQELMGELDKVLDELEFNNDVRVVIITGNGRAFSAGADVTSFTTLRPIDVVRYRYMKNVIYKIQLYTKPVIAAINGFALGGGLELAMACDIRIASNLAQLGQPEINIGIIPGAGGTQRLPRLIGKGRAKLLIYTGDMIPAEEAYKMGLVDQVVPANKFEEEVRRVALKIAEKSPLSLLAAKLAVELGYEANIWTGQELESALFGLLFTTEDVKEGVRAFLERRKPQFKGE
[2]; [10]
  Km: 24 ± 4 µM
  kcat: 20.56 s⁻¹
[3]
  Km: 76 ± 8 µM
[4]
  Km: 43 ± 2 µM
  kcat: 58.672 s⁻¹
[5]; [11]
  Km: 28 ± 7 µM
  kcat: 8.441 s⁻¹
[6]
  Km: 36 ± 9 µM

B3: MaoC-HCD (Saci_1085) (Sulfolobus acidocaldarius DSM 639) (protein)
chain: MSEQGPFFEDFKVGQRFRSKVGRSLTDVDNIWFTLLTNNSNQIHFNRDYTEKYFSGEPFKGRLVVNGFLTLAIVAGLLVELTSQNGFMLGIENVKFMNPVFAGDTIYGEAEVIEARESKSRPGFGIVKIRTWGYNQRGEKIVEFDRVFMVRKRNSVWSGEKSTDKPQ
[2]; [12]
  Km: 222 ± 64 µM
  kcat: 1.404 s⁻¹
[7]
  Km: 399 ± 127 µM
  kcat: 0.549 s⁻¹

B4: KT/DUF35 (Saci_1121/1120 complex) (Sulfolobus acidocaldarius DSM 639) (protein)
chain: MRNVAIVGTGHSKFGVRNDVSMQELAWEAVKQALEEANLEQKDIQYFVVGNVGMWSAEELPAVVVGEYCDLTPKGTMRVEAACATGSAAIRDAYQAIKAGEIDVALVVGVEQMSQSPNPQVIELIGRAGNYFWEFENFGLTFPGYYALYASAYMAKYGMKEEDLGSVAVKNHYYGARNPYAQFQKEITMEEYLKSKPVAQPLKLLDSSPITDGAAALILASEEVARKITDSPVWIVSQGVASGTANLSRRTDFTGIEASYVAAKEAYKRAKIDFSDAWRYFDVADVHDCFTIAEIMAYEDLGFAKRGEGHLMARNGETYIGGKIPVNVDGGLKAKGHPIGATGVSMAVSITRQLLYRAHKGTQADIRNGMGITHNVGGTGHYAYITIYSTRRPSS
[8]
  Km: 65 ± 18.7 µM
  kcat: 4.024 s⁻¹
[9]
  Km: 20 ± 4.1 µM
  kcat: 3.467 s⁻¹

B5: KT (Saci_1114) (Sulfolobus acidocaldarius DSM 639) (protein)
chain: MLQEVYLVDFARTPFTRFTRKEPQKDPFYNLRPEELAGIVINRLIEKNGINPREIEEIVTGCALQVGEQWSFGGRHEVFASRLPYTIPSMAVDRQCASSITTVAIGAMEVATGMADIVLAGGVEKMSKTPMFDNPHIEPNMAFLTDPKYAEYDLTTGYVMGLTAERLAEEAKISREEMDRWSLRSHQMATKAIQEGYFKDEIIPFETEVEGKKITLTTDQSVRPDTSLEKLSQLPPAFRPNGTITAGNSAPLNSGSAYVLLMSKNALKRYGLTPMAKIRSFGFAGVPPAVMGKGPVPSSKKALEKANLNVKDISLWEINEAFAVVVLNAIKELGLDESTVNKRGGAIAIGHPLGATGARIVGTLARQLLIEGKDYGVATLCVGGGQGGAIVVERV
[8]
  Km: 33 ± 10 µM
  kcat: 1.2 s⁻¹
[9]
  Km: 3.38 µM
  kcat: 1.8 s⁻¹

B6: ECR (Saci_1115) (Sulfolobus acidocaldarius DSM 639) (protein)
chain: MKAVILPGFKQGYKIDKNVQEPKAGKSEVVVKLRKAALCYRDLLQIQGFYPRSKYPLILGHEMVGEIEEVGEGVEGFKKGDIVTSLLYVPDWTCDNCKMGEEIYCNNRQLYAQELDGFFAERILVKANSLVKVPPGVSDEGAVVVPCVAAMIYRGLKRANVKQGDIVLVTGAGGGVGIHALQVAKALGAKVVGVTSEESKAKIVGKFSDYVVVGNKFAEEVRKGFGEPSIVVDNVGGPTLDESMRSLKIGGKIVQVGNIDPSVNFSLRLGYLVLKNVELIGHAGATKKDIVDTLEMVRQNKITPVIGGEVSIEDFDKALDMLKDRKRHGKILIKP
[2]; [13]
  Km: 96 ± 18 µM
  kcat: 0.256 s⁻¹

B7: ETF (Saci_0315) (Sulfolobus acidocaldarius DSM 639) (protein)
chain: MAELKIVVSIKQVPDADDLRIDPVTNNLVREGVPAVINPPDYHAIEEAIRLKERFGGKTMVLTMGPGQAEVALREALAMGIDEAYLISDRAMAGADTWATSYTVAKAVQRLGGADIILFGRRAVDGETEQVGPQTGKWLGIPVVAYVREIRSIENGKAVVVRTTEFEEEVIEVPLPAVFTILETANKPRQPDILSLIKAKTAKVTVWNKDDIKAEPTKIGLAGSPTKVIKVSPPPKTRKPEIIDGKKDPEKAAEWFLNKIYESLKEAESSLKEYVKPKAKVKVNSEIWVYIDHIGDRINKASLEILSEARRIADLMDTSVAGVVIGGESVKGIINEVYEYGADKVYFAETKGYDRYDNEVYTKALAKLAKKYKPEGIFFPGTRAARELASTSAIEIDTGLIADCTNFDVDDKGVLLATRPDFGGKEMSTIVCPRHRPVMVTTRAGVFMPLPRMPGRTGELIKEEIEDLYSRLKVLEYKNIEKRNILTEADIVVGVGRGIKSPENIKKFEEFATALGGVLGVSKPLADMGWYPKDRQIGQTGTTIRPKVYIALGVSGAVQHLVGILSSRKIGAINLDQSAPIFDNCDFGVVGDIFEIVPKMMELIKKKGE
[5]; [14]
  Km: 39 ± 12 µM
  kcat: 0.784 s⁻¹
